From article PMC4357008

Tests used:
[1] = confocal imaging, filopodia shaft/cell body ratio, Lck-mCherry normalised; conditions: glycan lost; control: mEGFP-EAAT2 wild type
[2] = confocal imaging, filopodia tip/shaft intensity ratio, COS-7; conditions: glycan lost; control: mEGFP-EAAT2 wild type

B1: EAAT2: EAAT2ΔG (protein)
parent chain: MASTEGANNMPKQVEVRMHDSHLSSDEPKHRNLGMRMCDKLGKNLLLSLTVFGVILGAVCGGLLRLASPIHPDVVMLIAFPGDILMRMLKMLILPLIISSLITGLSGLDAKASGRLGTRAMVYYMSTTIIAAVLGVILVLAIHPGNPKLKKQLGPGKKNDEVSSLDAFLDLIRNLFPENLVQACFQQIQTVTKKVLVAPPSEEANTTKAVISMLNETMNEAPEETKIVIKKGLEFKDGMNVLGLIGFFIAFGIAMGKMGEQAKLMVEFFNILNEIVMKLVIMIMWYSPLGIACLICGKIIAIKDLEVVARQLGMYMITVIVGLIIHGGIFLPLIYFVVTRKNPFSFFAGIFQAWITALGTASSAGTLPVTFRCLEDNLGIDKRVTRFVLPVGATINMDGTALYEAVAAIFIAQMNGVILDGGQIVTVSLTATLASIGAASIPSAGLVTMLLILTAVGLPTEDISLLVAVDWLLDRMRTSVNVVGDSFGAGIVYHLSKSELDTIDSQHRMQEDIEMTKTQSIYDDKNHRESNSNQCVYAAHNSVVIDECKVTLAANGKSADCSVEEEPWKREK
[1]
  localisation_or_trafficking, other: shaft/cell body density ratio: decreases, 1.7 vs 2.7
[2]
  localisation_or_trafficking, other: tip/shaft density ratio: increases, 2.8 vs 1.5
